T1: PUF4 RNA-binding domain (Saccharomyces cerevisiae, UniProt P25339 537-888)
T1 sequence: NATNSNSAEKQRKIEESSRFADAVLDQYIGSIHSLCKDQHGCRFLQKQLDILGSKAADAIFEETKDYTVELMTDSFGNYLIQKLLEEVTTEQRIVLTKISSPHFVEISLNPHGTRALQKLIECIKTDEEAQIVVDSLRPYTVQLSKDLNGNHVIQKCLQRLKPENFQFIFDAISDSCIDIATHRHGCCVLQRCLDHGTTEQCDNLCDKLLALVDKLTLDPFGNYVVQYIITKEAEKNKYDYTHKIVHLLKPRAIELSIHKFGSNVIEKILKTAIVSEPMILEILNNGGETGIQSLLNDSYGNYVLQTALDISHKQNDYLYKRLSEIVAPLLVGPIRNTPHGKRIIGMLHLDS


Target: T1, PUF4 RNA-binding domain
Test: Mg; RNA-MaP; 20 mM Na-HEPES pH 7.4, 30 mM KOAc, 0.75 mM MgCl2, 0.1% Tween-20, 5% glycerol, 0.1 mg/mL BSA, 2 mM DTT; 25 C; 0.0125-409.6 nM protein
Settings: tags: N-His6-TEV cleaved; C-SNAP kept, Cy3B-labelled; label: tethered on chip by stalled RNA polymerase

Binder | Kd
UCUCUUGUUGUAUAUUAAUUCUCUU (ssRNA) [Id_ii_S1_P4E.2_K4.1_C4.2_[C-2G]_H4.1_A4.1_F4.1_T4.2_[G10A]] | 1.25 nM
UCUCUUGUUGUAUAUUAUUUCUCUU (ssRNA) [Id_ii_S1_P4E.2_K4.1_C4.2_[C-2G]_H4.1_A4.1_F4.1_T4.2_[G10T]] | 0.762 nM
UCUCUUUAUGUAUAUUAAUUCUCUU (ssRNA) [Id_ii_S1_P4E.2_K4.1_C4.2_[C-2T]_[T-1A]_H4.1_A4.1_F4.1_T4.2_[G10A]] | 1.17 nM
UCUCUUUCUGUAUAUUAUAUCUCUU (ssRNA) [Id_ii_S1_P4E.2_K4.1_C4.2_[C-2T]_[T-1C]_H4.1_A4.1_F4.1_T4.2_[G10T]_[T11A]] | 0.738 nM
UCUCUUACUGUAUAUUAUAUCUCUU (ssRNA) [Id_ii_S1_P4E.2_K4.1_C4.2_[C-2A]_[T-1C]_H4.1_A4.1_F4.1_T4.2_[G10T]_[T11A]] | 1.83 nM
UCUCUUUAUAUACUAUCUCUU (ssRNA) [Ib_S1_P4E.1_K4.1_C4.1_H4.1_[G2A]_A4.1_[T7C]_F4.1_T4.1] | 17.8 nM
UCUCUUUGUGUAUAUUAUUUCUCUU (ssRNA) [Id_ii_S1_P4E.2_K4.1_C4.2_[C-2T]_[T-1G]_H4.1_A4.1_F4.1_T4.2_[G10T]] | 0.848 nM
UCUCUUAAUGUAUAUUACCUCUCUU (ssRNA) [Id_ii_S1_P4E.2_K4.1_C4.2_[C-2A]_[T-1A]_H4.1_A4.1_F4.1_T4.2_[G10C]_[T11C]] | 2.09 nM
UCUCUUUAUAUAAUAUCUCUU (ssRNA) [Ib_S1_P4E.1_K4.1_C4.1_H4.1_[G2A]_A4.1_[T7A]_F4.1_T4.1] | 61.4 nM
UCUCUUUUUGUAUAUUAUGUCUCUU (ssRNA) [Id_ii_S1_P4E.2_K4.1_C4.2_[C-2T]_H4.1_A4.1_F4.1_T4.2_[G10T]_[T11G]] | 0.981 nM
UCUCUUAUUGUAUAUUACCUCUCUU (ssRNA) [Id_ii_S1_P4E.2_K4.1_C4.2_[C-2A]_H4.1_A4.1_F4.1_T4.2_[G10C]_[T11C]] | 0.788 nM
UCUCUUUUUGUAUAUUAACUCUCUU (ssRNA) [Id_ii_S1_P4E.2_K4.1_C4.2_[C-2T]_H4.1_A4.1_F4.1_T4.2_[G10A]_[T11C]] | 1.09 nM
UCUCUUAAUGUAUAUUAUCUCUCUU (ssRNA) [Id_ii_S1_P4E.2_K4.1_C4.2_[C-2A]_[T-1A]_H4.1_A4.1_F4.1_T4.2_[G10T]_[T11C]] | 2.38 nM
UCUCUUUCUGUAUAUUAACUCUCUU (ssRNA) [Id_ii_S1_P4E.2_K4.1_C4.2_[C-2T]_[T-1C]_H4.1_A4.1_F4.1_T4.2_[G10A]_[T11C]] | 0.887 nM
UCUCUUACUGUAUAUUAUGUCUCUU (ssRNA) [Id_ii_S1_P4E.2_K4.1_C4.2_[C-2A]_[T-1C]_H4.1_A4.1_F4.1_T4.2_[G10T]_[T11G]] | 1.34 nM
UCUCUUUUUGUAUAUUAAGUCUCUU (ssRNA) [Id_ii_S1_P4E.2_K4.1_C4.2_[C-2T]_H4.1_A4.1_F4.1_T4.2_[G10A]_[T11G]] | 3.68 nM

Binder | Kd
UCUCUUUCUGUAUAUUACUUCUCUU (ssRNA) [Id_ii_S1_P4E.2_K4.1_C4.2_[C-2T]_[T-1C]_H4.1_A4.1_F4.1_T4.2_[G10C]] | 0.672 nM
UCUCUUGUUGUAUAUUAAAUCUCUU (ssRNA) [Id_ii_S1_P4E.2_K4.1_C4.2_[C-2G]_H4.1_A4.1_F4.1_T4.2_[G10A]_[T11A]] | 1.78 nM
UCUCUUUAUGUAUAUUAUCUCUCUU (ssRNA) [Id_ii_S1_P4E.2_K4.1_C4.2_[C-2T]_[T-1A]_H4.1_A4.1_F4.1_T4.2_[G10T]_[T11C]] | 0.896 nM
UCUCUUUAUGUAUAUUAGUUCUCUU (ssRNA) [Id_ii_S1_P4E.2_K4.1_C4.2_[C-2T]_[T-1A]_H4.1_A4.1_F4.1_T4.2] | 0.379 nM
UCUCUUUAUGUAUAUUAUGUCUCUU (ssRNA) [Id_ii_S1_P4E.2_K4.1_C4.2_[C-2T]_[T-1A]_H4.1_A4.1_F4.1_T4.2_[G10T]_[T11G]] | 0.98 nM
UCUCUUUCUGUAUAUUAUGUCUCUU (ssRNA) [Id_ii_S1_P4E.2_K4.1_C4.2_[C-2T]_[T-1C]_H4.1_A4.1_F4.1_T4.2_[G10T]_[T11G]] | 0.963 nM
UCUCUUUUUGUAUAUUAGUUCUCUU (ssRNA) [Id_ii_S1_P4E.2_K4.1_C4.2_[C-2T]_H4.1_A4.1_F4.1_T4.2] | 0.256 nM
UCUCUUUAUGUAUAUUACUUCUCUU (ssRNA) [Id_ii_S1_P4E.2_K4.1_C4.2_[C-2T]_[T-1A]_H4.1_A4.1_F4.1_T4.2_[G10C]] | 1.03 nM
UCUCUUACUGUAUAUUACCUCUCUU (ssRNA) [Id_ii_S1_P4E.2_K4.1_C4.2_[C-2A]_[T-1C]_H4.1_A4.1_F4.1_T4.2_[G10C]_[T11C]] | 1.69 nM
UCUCUUUUUGUAUAUUACCUCUCUU (ssRNA) [Id_ii_S1_P4E.2_K4.1_C4.2_[C-2T]_H4.1_A4.1_F4.1_T4.2_[G10C]_[T11C]] | 1.09 nM
UCUCUUUUUGUAUAUUAUAUCUCUU (ssRNA) [Id_ii_S1_P4E.2_K4.1_C4.2_[C-2T]_H4.1_A4.1_F4.1_T4.2_[G10T]_[T11A]] | 1.24 nM
UCUCUUAAUGUAUAUUAUUUCUCUU (ssRNA) [Id_ii_S1_P4E.2_K4.1_C4.2_[C-2A]_[T-1A]_H4.1_A4.1_F4.1_T4.2_[G10T]] | 1.61 nM
UCUCUUUGUGUAUAUUAUGUCUCUU (ssRNA) [Id_ii_S1_P4E.2_K4.1_C4.2_[C-2T]_[T-1G]_H4.1_A4.1_F4.1_T4.2_[G10T]_[T11G]] | 0.968 nM
UCUCUUUUUGUAUAUUAAAUCUCUU (ssRNA) [Id_ii_S1_P4E.2_K4.1_C4.2_[C-2T]_H4.1_A4.1_F4.1_T4.2_[G10A]_[T11A]] | 1.21 nM
UCUCUUAAUGUAUAUUACUUCUCUU (ssRNA) [Id_ii_S1_P4E.2_K4.1_C4.2_[C-2A]_[T-1A]_H4.1_A4.1_F4.1_T4.2_[G10C]] | 1.68 nM
UCUCUUGUUGUAUAUUAGUUCUCUU (ssRNA) [Id_ii_S1_P4E.2_K4.1_C4.2_[C-2G]_H4.1_A4.1_F4.1_T4.2] | 0.355 nM

— paper PMC9352680, “A comprehensive thermodynamic model for RNA binding by the Saccharomyces cerevisiae Pumilio protein PUF4”
